These are literature values, as cited in article PMC10866841.

Where two headings read alike, the source gives them in different places.

Data set [1] has as its target oligomeric amyloid-β (Homo sapiens) (UniProt P05067).
In data set [2] the target is C4d C4d (Homo sapiens) (UniProt P0C0L4).
The target of data set [3] is oligomeric amyloid-β (Homo sapiens) (UniProt P05067). This is another data set of the same source.
The target of data set [4] is C4d C4d (Homo sapiens) (UniProt P0C0L4). This is another data set of the same source.

C4d C4d (Homo sapiens), sequence (P0C0L4 957-1336): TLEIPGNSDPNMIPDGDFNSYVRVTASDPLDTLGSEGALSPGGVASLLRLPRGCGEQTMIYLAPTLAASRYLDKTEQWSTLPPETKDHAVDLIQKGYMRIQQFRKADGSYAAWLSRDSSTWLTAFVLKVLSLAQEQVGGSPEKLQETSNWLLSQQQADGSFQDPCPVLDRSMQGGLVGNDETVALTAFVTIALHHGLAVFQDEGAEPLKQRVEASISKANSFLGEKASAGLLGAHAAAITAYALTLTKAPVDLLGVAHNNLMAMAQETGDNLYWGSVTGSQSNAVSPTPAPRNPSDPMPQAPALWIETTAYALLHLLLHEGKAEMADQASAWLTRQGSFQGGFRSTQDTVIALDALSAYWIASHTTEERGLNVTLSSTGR
PIRB, sequence (P97484 25-642): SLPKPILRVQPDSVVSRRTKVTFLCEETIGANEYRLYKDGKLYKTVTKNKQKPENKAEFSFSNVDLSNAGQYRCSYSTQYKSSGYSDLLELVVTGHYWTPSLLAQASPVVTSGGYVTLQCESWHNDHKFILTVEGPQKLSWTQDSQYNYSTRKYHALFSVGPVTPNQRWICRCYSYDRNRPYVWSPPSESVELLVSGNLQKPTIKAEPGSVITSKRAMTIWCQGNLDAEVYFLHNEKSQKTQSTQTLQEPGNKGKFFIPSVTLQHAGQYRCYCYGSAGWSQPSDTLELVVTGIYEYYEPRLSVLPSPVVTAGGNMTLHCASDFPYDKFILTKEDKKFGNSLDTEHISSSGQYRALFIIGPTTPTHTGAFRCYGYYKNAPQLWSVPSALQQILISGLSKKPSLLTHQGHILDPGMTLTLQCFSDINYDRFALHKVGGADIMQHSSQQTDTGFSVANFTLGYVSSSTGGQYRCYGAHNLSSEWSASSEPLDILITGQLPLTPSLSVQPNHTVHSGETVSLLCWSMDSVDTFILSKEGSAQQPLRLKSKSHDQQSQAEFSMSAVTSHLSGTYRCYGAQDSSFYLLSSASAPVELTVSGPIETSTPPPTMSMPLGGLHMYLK
oligomeric amyloid-β (Homo sapiens), sequence (P05067 672-713): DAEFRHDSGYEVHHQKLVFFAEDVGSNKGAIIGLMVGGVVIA
LILRB2, sequence (Q8N423 22-460): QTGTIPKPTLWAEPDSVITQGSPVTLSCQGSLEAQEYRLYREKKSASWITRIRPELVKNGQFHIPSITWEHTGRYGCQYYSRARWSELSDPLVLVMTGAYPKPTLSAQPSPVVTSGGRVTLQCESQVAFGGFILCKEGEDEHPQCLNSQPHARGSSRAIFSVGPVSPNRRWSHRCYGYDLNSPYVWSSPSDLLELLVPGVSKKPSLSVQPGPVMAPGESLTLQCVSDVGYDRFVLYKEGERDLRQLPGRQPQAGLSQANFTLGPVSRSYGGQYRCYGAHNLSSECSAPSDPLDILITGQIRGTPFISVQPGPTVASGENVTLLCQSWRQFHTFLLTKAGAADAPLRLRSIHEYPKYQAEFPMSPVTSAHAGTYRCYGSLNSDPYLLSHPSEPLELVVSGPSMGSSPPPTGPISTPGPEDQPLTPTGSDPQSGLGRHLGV

Take PIRB (from UniProt P97484): the figures for the equilibrium dissociation constant (Kd) (in data set [1]; with C4d C4d (Homo sapiens) [2]) were 180 nM and 630 nM, respectively.
In the case of LILRB2 (from UniProt Q8N423), the Kd – broadly, the concentration at which binding is half-saturated – in data set [3] is 180 nM; with C4d C4d (Homo sapiens) [4] it was 630 nM.
